Experimental findings from US20020037533A1 (University of California, published 2002) are described below.

This assay deals with T1, myc-tagged PSD95 (UniProt P31016 1-724).
T1 construct: also called PSD-95 myc; PSD-95-myc; not shown: myc tag
In words: co-immunoprecipitation from HEK 293T cells stably expressing Flag-tagged GPR10, transfected with myc-tagged PSD95. As to the method:
Forty-eight hours after transfection, cells were washed once in PBS and lysed with IP buffer (1% triton X-100, 25 mM Tris, pH 7.4, 50 mM NaCl, 5 mM EDTA, 5 mM EGTA, 0.1 mM phenylmethylsulphonyl fluoride (PMSF), aprotinin, leupeptin, and bacitracin). Immunoprecipitation was performed using 2 μg anti-Flag M2 antibody (Sigma) or 1 μg anti-myc antibody (Roche) followed by 25 μl protein G-agarose (Sigma). Immunoprecipitation was carried out overnight at 4° C. Immunoprecipitated proteins were resolved on SDS-PAGE, transferred to PVDF membrane. Western blotting was performed to detect GRIP using anti-GRIP antibody (1:1000). ABP-myc, PSD-95-myc, and PICK1-myc were detected using the monoclonal anti-myc antibody (1:500, Clontech).
To determine whether GPR10 interacts specifically with AMPA receptor interacting proteins, myc-tagged ABP and myc-tagged PSD95 were transfected into cell lines expressing wild type and mutant Flag-tagged GPR10.

T1 sequence (P31016 whole entry): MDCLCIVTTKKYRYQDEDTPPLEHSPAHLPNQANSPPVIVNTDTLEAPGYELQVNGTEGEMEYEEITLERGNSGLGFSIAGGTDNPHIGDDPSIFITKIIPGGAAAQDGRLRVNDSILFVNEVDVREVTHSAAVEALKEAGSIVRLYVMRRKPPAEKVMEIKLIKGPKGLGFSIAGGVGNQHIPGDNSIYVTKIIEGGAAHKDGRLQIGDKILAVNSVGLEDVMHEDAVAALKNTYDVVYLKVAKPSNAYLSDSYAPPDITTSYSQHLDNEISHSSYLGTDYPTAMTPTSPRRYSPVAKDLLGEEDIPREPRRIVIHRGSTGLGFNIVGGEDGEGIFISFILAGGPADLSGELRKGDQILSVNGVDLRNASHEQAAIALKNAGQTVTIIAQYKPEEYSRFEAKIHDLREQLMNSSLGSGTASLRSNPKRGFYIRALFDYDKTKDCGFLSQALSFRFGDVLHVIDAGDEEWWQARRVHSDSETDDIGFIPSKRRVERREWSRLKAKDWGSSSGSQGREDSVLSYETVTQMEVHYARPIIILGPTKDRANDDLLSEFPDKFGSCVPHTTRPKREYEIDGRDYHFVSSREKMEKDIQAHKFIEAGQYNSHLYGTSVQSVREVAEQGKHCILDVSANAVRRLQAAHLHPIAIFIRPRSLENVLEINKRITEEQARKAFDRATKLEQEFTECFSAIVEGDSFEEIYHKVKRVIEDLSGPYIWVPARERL

B1: Flag-tagged GPR10 (wild type) (receptor, UniProt P49683 1-370, looked up)
chain: MASSTTRGPRVSDLFSGLPPAVTTPANQSAEASAGNGSVAGADAPAVTPFQSLQLVHQLKGLIVLLYSVVVVVGLVGNCLLVLVIARVRRLHNVTNFLIGNLALSDVLMCTACVPLTLAYAFEPRGWVFGGGLCHLVFFLQPVTVYVSVFTLTTIAVDRYVVLVHPLRRRISLRLSAYAVLAIWALSAVLALPAAVHTYHVELKPHDVRLCEEFWGSQERQRQLYAWGLLLVTYLLPLLVILLSYVRVSVKLRNRVVPGCVTQSQADWDRARRRRTFCLLVVIVVVFAVCWLPLHVFNLLRDLDPHAIDPYAFGLVQLLCHWLAMSSACYNPFIYAWLHDSFREELRKLLVAWPRKIAPHGQNMTVSVVI
notes: whole, on cells; Expressed in HEK 293T or COS7 cells; immunoprecipitated from Triton lysates with anti-Flag M2; also called Flag GPR10 WT; PrRP receptor; not shown: Flag tag
For B1, the binding result is reported as “no binding”.
